Legend:
[1] = target: Nisaea denitrificans DsyB (Nisaea denitrificans DR41_21 (DSM 18348)); assay: SEC; gel filtration of DsyB in solution; conalbumin (75,000 Da) and ovalbumin (43,000 Da) as markers
[2] = target: Nisaea denitrificans DsyB (Nisaea denitrificans DR41_21 (DSM 18348)); assay: native MS; nondenaturing MS of as-isolated DsyB exchanged into 250 mM ammonium acetate, pH 8.0; dimer region also seen with 25 equivalents of SAM
N. denitrificans DsyB [3] = target: T1, N. denitrificans DsyB (Nisaea denitrificans, UniProt A0A979HMS8); assay: X-ray crystal structure of complex; native MS; assay type: binding
T1 construct: full length, 337 residues (Met1-Glu337), C-terminal His-tag (pET22b), E. coli BL21(DE3); initiator Met mostly cleaved; monomer 37,215 Da predicted; homodimer in solution

N. denitrificans DsyB [4] = target: T1, N. denitrificans DsyB; assay: X-ray crystal structure of complex; assay type: binding; conditions: DsyB-SAH-MTHB complex; SAM site in C-domain; 1 mM SAH and 1 mM DL-MTHB
[5] = substrate: C[S+](CC[C@H](N)C(=O)O)C[C@H]1O[C@@H](n2cnc3c(N)ncnc32)[C@H](O)[C@@H]1O; assay: cells, lysate or membranes named; conditions: 1 mM DL-MTHB, 0-2 mM SAM, 1.97 µM enzyme activated with heat-killed L. aggregata dsyB- lysate fractions, 50 mM Tris-HCl, 100 mM NaCl, pH 8.0, 28 °C
[6] = substrate: CSCCC(O)C(=O)O; assay: GC of DMS released from product by alkali; nonlinear fit; assay type: biochemical, Nisaea denitrificans; conditions: 1 mM SAM, 1.97 µM enzyme activated with heat-killed L. aggregata dsyB- lysate fractions, racemic substrate 0-2 mM, 50 mM Tris-HCl, 100 mM NaCl, pH 8.0, 28 °C

Nisaea denitrificans DsyB (enzyme)
stoichiometry N [1]: 2 | stoichiometry N [2]: 2

C[S+](CC[C@H](N)C(=O)O)C[C@H]1O[C@@H](n2cnc3c(N)ncnc32)[C@H](O)[C@@H]1O (stereo partly shown) [SAM]
X-ray crystal structure of complex; native MS (N. denitrificans DsyB [3]; DsyB-SAM complex, SAM bound in chains A-C, not D, 1 mM SAM): three monomers (Chain A, B, and C) of the asymmetric unit contained SAM molecules

CSCCC(O)C(=O)O (racemic) [MTHB]
X-ray crystal structure of complex; native MS (N. denitrificans DsyB [3]; DsyB-SAH-MTHB complex, poor MTHB density, >6 Å from SAH, presumed initial binding site, 1 mM DL-MTHB): the MTHB cosubstrate molecule is located between the C‐domain and the N‐domain

Nc1ncnc2c1ncn2[C@@H]1O[C@H](CSCC[C@H](N)C(=O)O)[C@@H](O)[C@H]1O [SAH]
X-ray crystal structure of complex (N. denitrificans DsyB [4]): we solved the crystal structures of complexes of DsyB with SAM and with SAH‐MTHB

B1: N. denitrificans DsyB (Nisaea denitrificans DSM 18348) (protein)
chain: MTLLTNAEEISDIAFGFMGSKALFAALHHGVFTCLADGPLSVEEMAAATGLHPDRVQTLLTALASLGVVSAVEGRFANSPAAESFLVKGAKYDFGDYLRLQVDRQMYGLLDQIEDAIANNLPDDATSSYADWFSDPEQAKLYSNSQHAGSLGPARGLAKLIDLSGGKKLLDVGGGTGAFAITLCKAFADLAATIVDFPNVAALGKGYVEKAGLSDRIEYVIGDALRTEWPREQDAILMSYLFSGVAGDEHDSLLKRAYDHLVPGGRLLIHDFVVTADRTGPKLAALWQLQHTAFTPEARSLDDEWLAEQLKKTGFTDVKVGPMIPGMTMLAEAVRPE
notes: full length, 337 residues (Met1-Glu337), C-terminal His-tag (pET22b), E. coli BL21(DE3); initiator Met mostly cleaved; monomer 37,215 Da predicted; homodimer in solution
Km [5]: 160 ± 2 µM | Km [6]: 140 ± 20 µM
